{"source": "patent US20120266264A1", "about": "(VANCOUVER BIOTECH, published 2012)", "binders": {"B1": {"name": "GHR-106 monoclonal antibody (antibody, V domains shown)", "VH": "QVQLKESGPGLVAPSQSLSITCTVSGFSLSRYSVHWVRQPPGKGLEWLGMIWGGGSTDYNSALKSRLSISKDNSKSQVFLKMNSLQTDDTAMYYCARGNDGYYSFAYWGQGTLVTVSS", "VL": "DIVMSQSPSSLAVSAGEKVTMSCKSSQSLLNSRTRKNYLAWYQQKPGQSPKLLIYWASTRESGVPDRFTGSGSGTDFTLTISSVQAEDLAVYYCKQSYNLYTFGGGTKLEIK", "notes": "Murine hybridoma monoclonal antibody raised against the KLH-coupled 1-29 peptide of human GnRH receptor; detected with goat anti-mouse IgG; also called ATCC PTA-10252"}, "B2": {"name": "GHR-103 monoclonal antibody (antibody, V domains shown)", "VH": "B1 VH", "VL": "B1 VL", "notes": "Murine monoclonal"}, "B3": {"name": "synthetic peptide corresponding to the N-terminal 1-29 amino acid residues of human GnRH receptor (peptide)", "peptide": "MANSASPEQNQNHCSAINNSIPLMQGNLP", "notes": "Custom synthesized; also called 1-29 synthetic peptide; 1-29 peptide"}}, "key": {"[1]": {"biological_target": "B3", "test": "ELISA on coated peptide"}, "human GnRH receptor": {"biological_target": "T1, human GnRH receptor (human, UniProt P30968 1-328)", "T1 construct": "whole, on cells; Endogenous receptor on human cancer cell lines; also called GnRHR1; gonadotropin releasing hormone receptor", "T1 sequence (looked up)": "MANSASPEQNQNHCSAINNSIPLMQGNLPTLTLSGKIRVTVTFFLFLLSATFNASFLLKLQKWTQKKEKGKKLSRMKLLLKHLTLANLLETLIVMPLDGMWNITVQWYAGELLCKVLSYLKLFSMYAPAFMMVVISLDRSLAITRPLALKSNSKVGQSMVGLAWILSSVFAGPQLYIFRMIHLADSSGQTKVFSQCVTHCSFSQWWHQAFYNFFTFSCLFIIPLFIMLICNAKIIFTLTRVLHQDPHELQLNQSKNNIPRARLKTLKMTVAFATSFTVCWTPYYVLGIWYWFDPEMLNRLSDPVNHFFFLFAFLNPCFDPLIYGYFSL", "test": "ELISA, microwells coated with 1-29 synthetic peptide or OC-3-VGH cancer cells, AP-labeled goat anti-mouse IgG"}, "[2]": {"biological_target": "B3", "test": "ELISA on coated peptide (FIG. 2A)"}, "[3]": {"biological_target": "B1", "test": "competition cell ELISA, free peptide against GHR-106 on OC-3-VGH cells (FIG. 3B)"}}}
{"binder": "B1", "values": [{"measurement": "binding result", "setting": "[1]", "value": "binds"}, {"measurement": "Kd", "setting": "human GnRH receptor", "value": 2, "unit": "nM"}]}
{"binder": "B2", "values": [{"measurement": "binding result", "setting": "[2]", "value": "binds"}]}
{"binder": "B3", "values": [{"measurement": "binding result", "setting": "[3]", "value": "binds"}]}
